Key:
[1] = target: LTBP-2 C(H) F2, sub-fragment of human LTBP-2C(H) (six tandem EGF-like motifs, EGFs 9-14) (human); test: ELISA; solid phase binding assay, saturation curve: LTBP-2 or fragment coated on wells, increasing FGF-2 (0–30 ng/ml; 0–1.8 or 0–1.5 nM), 3 h at 37°C; BSA signal subtracted, bound FGF-2 from a standard ELISA curve; Kd by non-linear regression (GraphPad Prism) for a single binding site (Fig 3, Fig 4B, D, E)
[2] = target: recombinant human LTBP-2 central fragment LTBP-2C(H) (human); test: as above

Substance: recombinant human fibroblast growth factor-2 (FGF-2) (from UniProt P09038 143-288) (ligand)
- Kd [1]: 1.03 nM
- Kd [2]: 1.02 nM

— publication PMC4532469
